{
  "source": "patent US20230192839A1",
  "about": "“ANTIBODIES HAVING CONDITIONAL AFFINITY AND METHODS OF USE THEREOF” (PFIZER INC., priority 2017, published 2023)",
  "molecules": {"B1": {"name": "P02_D09: anti-CD33 clone with conditional affinity; VH SEQ ID NO: 35, VL SEQ ID NO: 36; also as scFv in CAR (antibody, V domains shown)", "VH": "QVQLVESGGGLVQAGGSLRLSCAASRRSSRSWAMHWVRQAPGKGLEWVAVISYDGRLKYYADSVKGRFTISRDNAEYLVYLQMNSLRAEDTAVYYCAAEEGDGGFFDYWGQGTLVTVSS", "VL": "QSVLTQPPSASGTPGQRVTISCSGSSSNIGSNYVNWYQQLPGTAPKLLIYRNNERPSGVPDRFSGSKSGTSASLAISGLRSEDEADYYCAAWDGSLSGRGVFGTGTKLTVL", "modifications": "Synthetic Antibody", "notes": "also as scFv in CAR"}},
  "key": {"MV4-11 cells": {"tested_on": "MV4-11 cells", "assay": "Flow cytometry analysis of MTX-dependent CAR T cell activation (CD69) and proliferation (CellTrace)", "format": "cell-based, human", "details": "100 µM MTX vs 0 µM MTX, with target cells, FIG. 8", "protocol": "The anti-CD33 clone used in this example was P02_D09. CAR T cells containing this clone were generated in duplicate from PBMC cells from two different human donors. The target cell line used in this assay was MV4-11, as described in Example 5.\nTo assess activation of the conditional CAR T cells described above, in vitro cytotoxicity assays were carried out in 24-well plates by co-culturing 250,000 CAR T cells, with or without 250,000 MV4-11 cells. In addition, each of the co-cultures contained either 100 µM MTX or 0 µM MTX. In all conditions, 1 mM leucovorin was supplemented to circumvent MTX toxicity. Cells were collected after 24 hours of co-culture, labeled with fluorophore-conjugated antibody to CD69 (Biolegend) and analyzed by flow cytometry (BD LSR II). Activation was quantified via detection of the early activation marker, CD69.\nTo assess proliferative ability of the CAR T cells described above, the cells were prelabelled with the fluorescent intracellular dye, CellTrace Deep Red (Invitrogen), before co-culturing as described immediately above for the CAR T cell activation assay. The co-cultures were incubated for 7 days at 37 C with 5% CO2. On day 7, cells were collected and analyzed via flow cytometry. Dilution of the CellTrace dye (leftward shift of peaks in the histogram) was interpreted as T cell proliferation."}, "MV4-11 target cells": {"tested_on": "MV4-11 target cells", "assay": "Proliferation of CD33-specific conditional CAR T cells after CAR or TCR stimulation, cell count by flow cytometry", "format": "cell-based, human", "details": "100 µM MTX vs no MTX, 7 days, FIG. 7", "protocol": "The example examines the proliferative capabilities of conditional CAR T cells containing an anti-CD33 antibody having conditional affinity after stimulation of the CAR T cell via either the CAR T cell’s i) CAR or ii) TCR. In addition, these were examined in both the presence and absence of methotrexate (MTX).\nThe anti-CD33 clone used in this example was P02_D09. In addition, a tool T cell was prepared as described in Example 4, as were untransduced T cells. T cells from one PBMC donor were used for this experiment.\nThe target cell line used in this assay was MV4-11, as described in Example 5.\nThe assays were carried out in 96-well plates by culturing 100,000 T cells with various other reagents (depending on the assay), for each of the different T cells described above. In addition, each of the co-cultures contained either 100 µM MTX or 0 µM MTX. In both conditions, 1 mM leucovorin was supplemented to circumvent MTX toxicity. The T cells were stimulated by CAR or TCR as in Example 6. Cultures were maintained in a final volume of 100 ul of RPMI 1640 medium for 7 days at 37 C with 5% CO2. On day 7, cells were collected and counted via flow cytometry (BD LSR II) using 123Count eBeads (Thermo Fisher Scientific)."}},
  "data": [
    {"molecule": "B1", "values": [
      {"measurement": "activation (CD69) in the presence of MTX", "setting": "MV4-11 cells; 24 hours", "value": "dramatically reduced"},
      {"measurement": "proliferation (CellTrace dilution) in the presence of MTX", "setting": "MV4-11 cells; 7 days", "value": "dramatically reduced"},
      {"measurement": "proliferative ability, CAR stimulation, presence of MTX", "setting": "MV4-11 target cells; CAR stimulation (CD33)", "value": "dramatically diminished"},
      {"measurement": "proliferation, TCR stimulation, presence of MTX", "setting": "MV4-11 target cells; TCR stimulation (CD3/CD28)", "value": "not affected by MTX"}
    ]}
  ]
}
